Experimental data published in paper PMC2199365.

Molecular target: nascent 77FtsQTAG27 (E. coli) (UniProt P06136)
Test: cross-linking

UniProt P06136, sequence (P06136 1-77): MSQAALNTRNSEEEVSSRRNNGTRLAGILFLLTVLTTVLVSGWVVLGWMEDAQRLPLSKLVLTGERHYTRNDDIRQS

B1: purified signal recognition particle (SRP: Ffh and 4.5S RNA) (complex)
chain: MFDNLTDRLSRTLRNISGRGRLTEDNVKDTLREVRMALLEADVALPVVREFINRVKEKAVGHEVNKSLTPGQEFVKIVRNELVAAMGEENQTLNLAAQPPAVVLMAGLQGAGKTTSVGKLGKFLREKHKKKVLVVSADVYRPAAIKQLETLAEQVGVDFFPSDVGQKPVDIVNAALKEAKLKFYDVLLVDTAGRLHVDEAMMDEIKQVHASINPVETLFVVDAMTGQDAANTAKAFNEALPLTGVVLTKVDGDARGGAALSIRHITGKPIKFLGVGEKTEALEPFHPDRIASRILGMGDVLSLIEDIESKVDRAQAEKLASKLKKGDGFDLNDFLEQLRQMKNMGGMASLMGKLPGMGQIPDNVKSQMDDKVLVRMEAIINSMTMKERAKPEIIKGSRKRRIAAGCGMQVQDVNRLLKQFDDMQRMMKKMKKGGMAKMMRSMKGMMPPGFPGR
- concentration of SRP at which cross-linking saturated: 0.3 µM
